T1: FcγRIIA-H167-Acro (human, UniProt P12318 36-218, limits assumed)
T1 construct: bought; His at 167; also called Human Fc gamma RIIA/CD32a (H167) Protein, His Tag
T1 sequence (looked up): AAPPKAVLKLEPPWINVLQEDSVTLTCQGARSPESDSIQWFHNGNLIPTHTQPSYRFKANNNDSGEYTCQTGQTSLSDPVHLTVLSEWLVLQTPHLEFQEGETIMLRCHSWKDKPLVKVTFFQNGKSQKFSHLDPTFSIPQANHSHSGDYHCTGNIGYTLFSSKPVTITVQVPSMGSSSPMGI

T2: FcγRIIA-R167-Sino (human, UniProt P12318 34-218, limits assumed)
T2 construct: bought; Arg at 167; also called FCRIIA-R167-Sino; CD32A Protein, Human, Recombinant (167 Arg, His Tag)
T2 sequence (looked up): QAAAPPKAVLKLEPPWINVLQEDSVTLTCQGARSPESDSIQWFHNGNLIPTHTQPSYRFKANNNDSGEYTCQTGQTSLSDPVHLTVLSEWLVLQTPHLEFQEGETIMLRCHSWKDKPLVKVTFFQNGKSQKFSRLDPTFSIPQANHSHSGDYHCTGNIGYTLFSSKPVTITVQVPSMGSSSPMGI

B1: PD1-PL1-3F2-FV3A-IgG1 (bispecific antibody)
heavy: EVQLVESGGGLVQPGGSLRLSCAASGFTFSSYSMSWVRQAPGKRLEWVAHISSGGSSTYYPDTVKGRFTISRDNSKNTLYLQMNSLRAEDTAMYYCTRQFYYGSSFWYFDVWGAGTTVTVSSASTKGPSVFPLAPSSKSTSGGTAALGCLVKDYFPEPVTVSWNSGALTSGVHTFPAVLQSSGLYSLSSVVTVPSSSLGTQTYICNVNHKPSNTKVDKKVEPKSCDKTHTCPPCPAPELLGGPSVFLFPPKPKDTLMISRTPEVTCVVVDVSHEDPEVKFNWYVDGVEVHNAKTKPREEQYNSTYRVVSVLTVLHQDWLNGKEYKCKVSNKALPAPIEKTISKAKGQPREPQVYTLPPSREEGGGGSGGGGSQVQLQESGPGLVKPSETLSLTCTVSGYSITSGYNWHWIRQFPGNCLEWMGYIHHSSITNYNPSLKSRITISRDTSKNQFSLKLSSVTAADTATYYCAREGYDYDWFAYWGQGTLVTVSSASTGGGGSGGGGSGGGGSGGGGSDIVLTQSPDFQSVTPKEKVTLSCRASQSISNNLHWYQQKPDESPKLLIKYASQSISGIPSRFSGSGSGTDFTLTINSVEAEDFAMYFCQQSKSWPFTFGCGTRLEIKGGGGSGGGGSVSLTCLVKGFYPSDIAVEWESNGQPENNYKTTPPVLDSDGSFFLYSKLTVDKSRWQQGNVFSCSVMHEALHNHYTQKSLSLSPGK
light: DNVLTQSPATLSVSPGERATLSCKASQSVDFDGDSYMNWYQQKPGQPPRLLIYAASNLESGIPARFSGSGSGTDFTLTISSVEPEDFATYYCQQSNEDPPTFGGGTKVEIKRTVAAPSVFIFPPSDEQLKSGTASVVCLLNNFYPREAKVQWKVDNALQSGNSQESVTEQDSKDSTYSLSSTLTLSKADYEKHKVYACEVTHQGLSSPVTKSFNRGEC
notes: IgG1; also called G4
B2: PDL1-C40-6A7-FV3A-IgG4 (bispecific antibody)
heavy: EVQLLESGGGLVQPGGSLRLSCAASGFTFSSYIMMWVRQAPGKGLEWVSSIYPSGGITFYADTVKGRFTISRDNSKNTLYLQMNSLRAEDTAVYYCARIKLGTVTTVDYWGQGTLVTVSSASTKGPSVFPLAPCSRSTSESTAALGCLVKDYFPEPVTVSWNSGALTSGVHTFPAVLQSSGLYSLSSVVTVPSSSLGTKTYTCNVDHKPSNTKVDKRVESKYGPPCPPCPAPEFLGGPSVFLFPPKPKDTLMISRTPEVTCVVVDVSQEDPEVQFNWYVDGVEVHNAKTKPREEQFNSTYRVVSVLTVLHQDWLNGKEYKCKVSNKGLPSSIEKTISKAKGQPREPQVYTLPPSQEEGGGGSGGGGSDVVMTQSPLSLPVTLGQPASISCRSSQSLLHSNGNTYLHWYQQRPGQSPNHLIYQVSNRFSGVPDRFSGSGSGTDFTLKISRVEAEDVGVYFCSQTTHVPWTFGCGTKVEIKGGGGSGGGGSGGGGSGGGGSQVQLVQSGAEVKKPGASVKLSCKASGYTFISYYIYWVKQAPGQCLEWIGGINPRNGGTNFNEKFKSRATLTVDTSISTAYMELSRLRSEDTAVYYCTRHGNGVYWGQGTTLTVSSGGGGSGGGGSVSLTCLVKGFYPSDIAVEWESNGQPENNYKTTPPVLDSDGSFFLYSRLTVDKSRWQEGNVFSCSVMHEALHNHYTQKSLSLSLGK
light: QSALTQPASVSGSPGQSITISCTGTSSDVGGYNYVSWYQQHPGKAPKLMIYDVSNRPSGVSNRFSGSKSGNTASLTISGLQAEDEADYYCSSYTSSSTRVFGTGTKVTVLGQPKANPTVTLFPPSSEELQANKATLVCLISDFYPGAVTVAWKADGSPVKAGVETTKPSKQSNNKYAASSYLSLTPEQWKSHRSYSCQVTHEGSTVEKTVAPTECS
notes: IgG4 subtype of PDL1-C40-6A7-FV3A; also called G5
B3: PDL1-TGFbR2-3A (antibody)
heavy: EVQLLESGGGLVQPGGSLRLSCAASGFTFSSYIMMWVRQAPGKGLEWVSSIYPSGGITFYADTVKGRFTISRDNSKNTLYLQMNSLRAEDTAVYYCARIKLGTVTTVDYWGQGTLVTVSSASTKGPSVFPLAPSSKSTSGGTAALGCLVKDYFPEPVTVSWNSGALTSGVHTFPAVLQSSGLYSLSSVVTVPSSSLGTQTYICNVNHKPSNTKVDKKVEPKSCDKTHTCPPCPAPELLGGPSVFLFPPKPKDTLMISRTPEVTCVVVDVSHEDPEVKFNWYVDGVEVHNAKTKPREEQYNSTYRVVSVLTVLHQDWLNGKEYKCKVSNKALPAPIEKTISKAKGQPREPQVYTLPPSRDEGGGGSGGGGSIPPHVQKSVNNDMIVTDNNGAVKFPQLCKFCDVRFSTCDNQKSCMSNCSITSICEKPQEVCVAVWRKNDENITLETVCHDPKLPYHDFILEDAASPKCIMKEKKKPGETFFMCSCSSDECNDNIIFSEEYNTSNPDGGGGSGGGGSVSLTCLVKGFYPSDIAVEWESNGQPENNYKTTPPVLDSDGSFFLYSKLTVDKSRWQQGNVFSCSVMHEALHNHYTQKSLSLSPGK
light: B2 light
notes: IgG1; also called PDL1-TGFbR2-3A (IgG1); PDL1-TGFbR2-3A-IgG1

Tests used:
FcγRIIB = molecular target: T3, FcγRIIB (human); assay: SPR (Biacore T200, protein A sensor chip), binding to FcγRIIB
T3 construct: recombinant protein used as SPR analyte
T3 sequence (P31994 43-217): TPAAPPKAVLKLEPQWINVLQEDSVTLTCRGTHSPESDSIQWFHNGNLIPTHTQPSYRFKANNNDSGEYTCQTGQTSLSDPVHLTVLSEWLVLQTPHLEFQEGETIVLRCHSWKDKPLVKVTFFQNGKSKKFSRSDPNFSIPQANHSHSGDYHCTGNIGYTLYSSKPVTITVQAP
Source text: (§1) The Fc receptors included FcγRIIB (FcγRIIB-Acro), FcγRIIA (FcγRIIA-H167-Acro), FcγRIIIA (FcγRIIIA-V176-Acro), FcγRIIIB (FcγRIIIB-NA1-Acro), FcγRI (FcγRI-Sino), and FcRn (FcRn-Acro).
(§2) The Fc receptors included FcγRI (FcγRI-Sino), FcγRIIA (FcγRIIA-H167-Acro and FcγRIIA-R167), FcγRIIB, FcγRIIIA (FcγRIIIA-F176 and FcγRIIIA-V176-Acro), and FcγRIIIB (FcγRIIIB-NA1-Acro).

[1] = molecular target: T4, 6×Histidine-tagged human PD-L1 protein (hPDL1-His) (human, UniProt Q9NZQ7 19-238); assay: SPR Biacore T200; binder captured on protein A chip, target as analyte
T4 construct: also called hPL1-His; His-tagged human PD-L1
T4 sequence (Q9NZQ7 19-238 limits assumed): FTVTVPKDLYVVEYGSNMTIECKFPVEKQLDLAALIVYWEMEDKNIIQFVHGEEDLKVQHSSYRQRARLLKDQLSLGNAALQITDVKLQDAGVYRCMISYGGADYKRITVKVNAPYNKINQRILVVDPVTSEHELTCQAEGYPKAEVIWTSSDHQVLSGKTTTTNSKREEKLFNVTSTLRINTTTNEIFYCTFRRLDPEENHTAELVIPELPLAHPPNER
Protocol: Binding affinities of the fusion proteins against human CTLA4 (hCTLA4-His) or human PD-L1 (hPDL1) were measured by surface plasmon resonance (SPR) using Biacore™ T200 biosensor equipped with pre-immobilized protein A sensor chips. A CTLA4 antibody CT4-4G12-IgG1 (CT4) was used as a control. ATOR1015-CD86 (CD86) and KN035-IgG1 (with D265A mutation in heavy chain constant domain) were also used as controls.

FcγRI-Sino [2] = molecular target: T5, FcγRI-Sino (human, UniProt P12314 16-288, limits assumed); assay: SPR (Biacore T200, protein A sensor chip), binding to FcγRI-Sino
T5 construct: bought; also called CD64 Protein, Human, Recombinant (His Tag)
T5 sequence (P12314 16-288 limits assumed): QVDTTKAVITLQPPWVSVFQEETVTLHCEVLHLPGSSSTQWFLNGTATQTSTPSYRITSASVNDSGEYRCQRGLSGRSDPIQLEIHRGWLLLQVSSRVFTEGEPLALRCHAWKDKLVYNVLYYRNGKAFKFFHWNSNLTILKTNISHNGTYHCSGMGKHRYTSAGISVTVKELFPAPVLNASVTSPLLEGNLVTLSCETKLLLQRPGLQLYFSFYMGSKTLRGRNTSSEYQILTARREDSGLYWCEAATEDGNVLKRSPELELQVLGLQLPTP
Source text: as §1, §2

FcγRIIA-R167 = molecular target: T6, FcγRIIA-R167 (human); assay: SPR (Biacore T200, protein A sensor chip), binding to FcγRIIA-R167
T6 construct: recombinant, His tag; ACRO product; different from FcγRIIA-R167-Sino; also called Human Fc gamma RIIA/CD32a (R167) Protein, His Tag
Source text: as §1, §2

FcγRIIIA-F176 = molecular target: T7, FcγRIIIA-F176 (human, UniProt P08637); assay: SPR (Biacore T200, protein A sensor chip), binding to FcγRIIIA-F176
T7 construct: recombinant, His tag; ACRO product; different from FcγRIIIA-F176-Sino; also called Human Fc gamma RIIIA/CD16a (F176) Protein, His Tag
T7 sequence (P08637 17-208 limits assumed, form in doubt): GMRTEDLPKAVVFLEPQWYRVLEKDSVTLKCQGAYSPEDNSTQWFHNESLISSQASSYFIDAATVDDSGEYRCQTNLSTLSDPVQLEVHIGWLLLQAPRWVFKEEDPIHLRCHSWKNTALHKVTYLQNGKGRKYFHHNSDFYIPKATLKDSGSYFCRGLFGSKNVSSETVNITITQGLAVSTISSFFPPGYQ
Source text: as §1, §2

FcγRIIA-H167-Acro = molecular target: T1, FcγRIIA-H167-Acro; assay: SPR (Biacore T200, protein A sensor chip), binding to FcγRIIA-H167-Acro
Source text: as §1, §2

FcγRIIIB-NA1-Acro = molecular target: T8, FcγRIIIB-NA1-Acro (human, UniProt O75015 17-200, limits assumed); assay: SPR (Biacore T200, protein A sensor chip), binding to FcγRIIIB-NA1-Acro
T8 construct: bought; also called Human Fc gamma RIIIB/CD16b (NA1) Protein, His Tag
T8 sequence (O75015 other isoform, or with tags, fused parts or gaps limits assumed): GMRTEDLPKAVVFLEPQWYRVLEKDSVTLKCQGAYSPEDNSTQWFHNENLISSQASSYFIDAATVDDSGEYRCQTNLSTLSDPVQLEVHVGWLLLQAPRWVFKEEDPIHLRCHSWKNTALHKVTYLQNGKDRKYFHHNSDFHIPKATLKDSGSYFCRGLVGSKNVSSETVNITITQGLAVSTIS
Source text: as §1, §2

FcγRIIIA-V176-Acro = molecular target: T9, FcγRIIIA-V176-Acro (human, UniProt P08637 17-208); assay: SPR (Biacore T200, protein A sensor chip), binding to FcγRIIIA-V176-Acro
T9 construct: bought; Val at 176; also called Human Fc gamma RIIIA/CD16a (V176) Protein, His Tag
T9 sequence (P08637 17-208 F176V limits assumed): as the sequence (P08637 17-208 limits assumed, form in doubt) above, with F160V counted along it
Source text: as §1, §2

human CD40 (hCD40-his) = human CD40 (hCD40-his) (human, UniProt P25942 21-193); assay: SPR Biacore T200; binder captured on protein A chip, target as analyte
human CD40 (hCD40-his), sequence (P25942 21-193 limits assumed): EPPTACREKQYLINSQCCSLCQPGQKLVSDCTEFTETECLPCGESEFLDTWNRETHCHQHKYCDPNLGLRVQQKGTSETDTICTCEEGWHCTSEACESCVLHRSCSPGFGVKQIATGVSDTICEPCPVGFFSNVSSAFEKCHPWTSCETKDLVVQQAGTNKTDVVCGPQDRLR
Protocol: Binding affinity to human CD40 of the obtained fusion proteins PDL1-C40-6A7-FV3A (IgG1), PDL1-C40-6A7-FV3A-IgG4, PDL1-C40-6A7-FV3C (IgG1), PDL1-C40-6A7-FV3A1 (IgG1), PDL1-C40-6A7-FV3A2 (IgG1), and PDL1-C40-6A7-FV3A3 (IgG1) were determined by surface plasmon resonance (SPR) using Biacore™ T200 biosensor equipped with pre-immobilized protein A sensor chips. The original anti-CD40 monoclonal antibody C40-6A7 IgG2 (6A7, VH SEQ ID NO: 91, VL SEQ ID NO: 92), which the scFV was derived from, was used as a control.

TGFb1 = molecular target: T10, TGFb1 (Homo sapiens (Human), UniProt P01137 279-390, Active TGF-beta-1 is a disulfide-linked homodimer of this chain; one copy is given.); assay: SPR; binder as capture solution, TGFb1 as analyte
T10 construct: also called TGFb1 protein
T10 sequence (P01137 279-390 limits assumed): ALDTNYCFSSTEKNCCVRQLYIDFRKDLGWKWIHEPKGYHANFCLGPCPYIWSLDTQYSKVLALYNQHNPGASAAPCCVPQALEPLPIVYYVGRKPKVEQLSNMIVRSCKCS

FcγRI-Sino [3] = molecular target: T5, FcγRI-Sino; assay: SPR Biacore T200; binder captured on protein A chip, Fc receptor as analyte
Protocol: (§3) Binding affinities of the fusion proteins PDL1-TGFbR2-3A (IgG1) (or PDL1-TGFbR2-3A-IgG1) and PDL1-TGFbR2-3A-IgG4 to human Fc receptors were measured by surface plasmon resonance (SPR) using Biacore™ T200 biosensor equipped with pre-immobilized protein A sensor chips. The Fc receptors included FcγRI-Sino, FcγRIIA-R167-Sino, FcγRIIIA-F176-Sino, FcγRIIIB-Sino, and FcγRn. A humanized CTLA4 antibody CT4-4G12-IgG1 (CT4-4G12, or 4G12; VH SEQ ID NO: 44, VL SEQ ID NO: 45) was used as a control to test binding affinity to FcγRn.

FcγRIIA-R167-Sino = molecular target: T2, FcγRIIA-R167-Sino; assay: as above
Protocol: as §3

FcγRIIIB-Sino = molecular target: T11, FcγRIIIB-Sino (human, UniProt O75015 17-200, limits assumed); assay: as above
T11 construct: bought; also called FCRIIIB-Sino; CD16b Protein, Human, Recombinant (NA1 allotypes, His Tag)
T11 sequence (O75015 other isoform, or with tags, fused parts or gaps limits assumed): as the sequence (O75015 other isoform, or with tags, fused parts or gaps limits assumed) above
Protocol: as §3

FcRn = molecular target: T12, FcRn (human, UniProt P55899 24-297; P61769 21-119); assay: as above
T12 construct: bought; also called FcγRn; FcRn-Acro
T12 sequence (P55899 24-297 limits assumed, chain 1 of 2): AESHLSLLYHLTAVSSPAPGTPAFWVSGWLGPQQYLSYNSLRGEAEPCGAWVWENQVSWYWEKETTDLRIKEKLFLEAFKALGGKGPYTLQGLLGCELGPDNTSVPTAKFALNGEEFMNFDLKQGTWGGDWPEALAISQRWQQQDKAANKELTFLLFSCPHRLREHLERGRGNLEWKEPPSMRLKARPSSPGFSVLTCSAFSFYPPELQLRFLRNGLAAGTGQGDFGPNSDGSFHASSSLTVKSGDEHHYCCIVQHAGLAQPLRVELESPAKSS
T12 sequence (P61769 21-119 limits assumed, chain 2 of 2): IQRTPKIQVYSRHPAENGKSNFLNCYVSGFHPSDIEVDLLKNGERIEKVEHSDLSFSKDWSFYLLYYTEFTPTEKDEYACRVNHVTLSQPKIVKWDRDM
Protocol: as §3

| Binder | Kd (FcγRIIB) [nM] | Kd [1] [nM] | koff [1] [s⁻¹] | kon [1] [M⁻¹ s⁻¹] | Kd (FcγRI-Sino [2]) [nM] | Kd (FcγRIIA-R167) [nM] | Kd (FcγRIIIA-F176) [nM] | Kd (FcγRIIA-H167-Acro) [nM] | Kd (FcγRIIIB-NA1-Acro) [nM] | Kd (FcγRIIIA-V176-Acro) [nM] | Kd (human CD40 (hCD40-his)) [nM] | koff (human CD40 (hCD40-his)) [s⁻¹] | kon (human CD40 (hCD40-his)) [M⁻¹ s⁻¹] | Kd (TGFb1) [nM] | koff (TGFb1) [s⁻¹] | kon (TGFb1) [M⁻¹ s⁻¹] | Kd (FcγRI-Sino [3]) [nM] | Kd (FcγRIIA-R167-Sino) [nM] | Kd (FcγRIIIB-Sino) [nM] | Kd (FcRn) [nM] |
| --- | --- | --- | --- | --- | --- | --- | --- | --- | --- | --- | --- | --- | --- | --- | --- | --- | --- | --- | --- | --- |
| B1 | 2350 | 2.41 | 0.00103 | 429000 | 2.94 | 326 | 84.6 | 633 | 1180 | 130 |  |  |  |  |  |  |  |  |  |  |
| B2 | 766 |  |  |  | 1.22 | 706 |  | 1130 |  | 75.3 | 0.852 | 0.000432 | 507000 |  |  |  |  |  |  |  |
| B3 |  |  |  |  |  |  |  |  |  |  |  |  |  | 37.3 | 0.00573 | 154000 | 14.5 | 844 | 1330 | 19.4 |

Reference: patent US20240360201A1 (BIOCYTOGEN PHARMACEUTICALS BEIJING, published 2024)
